# Measurements reported in article PMC7340788, “Structure of the yeast Swi/Snf complex in a nucleosome free state” (Nature Communications, 2020).
# T1: Swi3 (S. cerevisiae, UniProt P32591 1-825)
# T1 construct: Swi3, subunit of the S. cerevisiae Swi/Snf complex; endogenous protein; two copies (chains A and B) in the model; also called Swi3A; Swi3B; source: endogenous, S. cerevisiae; purified as part of the Swi/Snf complex through Snf6-3Flag (ANTI-FLAG M2 resin, Superose 6)
# T1 sequence (looked up): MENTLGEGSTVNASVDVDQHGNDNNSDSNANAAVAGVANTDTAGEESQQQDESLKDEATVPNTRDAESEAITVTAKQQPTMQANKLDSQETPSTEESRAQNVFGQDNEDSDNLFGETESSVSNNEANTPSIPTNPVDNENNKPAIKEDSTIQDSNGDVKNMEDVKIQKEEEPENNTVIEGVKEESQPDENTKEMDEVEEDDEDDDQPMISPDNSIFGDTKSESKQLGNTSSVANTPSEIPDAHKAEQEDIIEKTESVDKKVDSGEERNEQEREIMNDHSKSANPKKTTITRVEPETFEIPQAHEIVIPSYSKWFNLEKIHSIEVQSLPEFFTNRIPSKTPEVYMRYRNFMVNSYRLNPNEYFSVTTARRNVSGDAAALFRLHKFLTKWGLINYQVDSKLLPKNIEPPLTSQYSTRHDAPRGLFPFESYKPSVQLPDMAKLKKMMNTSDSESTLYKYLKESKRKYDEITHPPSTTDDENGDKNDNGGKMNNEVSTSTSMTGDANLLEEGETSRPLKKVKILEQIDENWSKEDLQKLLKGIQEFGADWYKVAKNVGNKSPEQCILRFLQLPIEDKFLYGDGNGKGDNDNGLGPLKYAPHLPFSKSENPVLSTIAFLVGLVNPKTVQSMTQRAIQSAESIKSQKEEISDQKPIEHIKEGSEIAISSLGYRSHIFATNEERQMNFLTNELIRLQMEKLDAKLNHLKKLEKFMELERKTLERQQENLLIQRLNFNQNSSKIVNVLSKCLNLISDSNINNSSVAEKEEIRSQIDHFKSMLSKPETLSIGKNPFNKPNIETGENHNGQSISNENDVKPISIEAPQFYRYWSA
# B1: Snf5 (natural protein, S. cerevisiae, UniProt P18480 1-905, looked up)
# chain: MNNQPQGTNSVPNSIGNIFSNIGTPSFNMAQIPQQLYQSLTPQQLQMIQQRHQQLLRSRLQQQQQQQQQTSPPPQTHQSPPPPPQQSQPIANQSATSTPPPPPAPHNLHPQIGQVPLAPAPINLPPQIAQLPLATQQQVLNKLRQQAIAKNNPQVVNAITVAQQQVQRQIEQQKGQQTAQTQLEQQRQLLVQQQQQQQLRNQIQRQQQQQFRHHVQIQQQQQKQQQQQQQHQQQQQQQQQQQQQQQQQQQQQQQQQQQQQQQQQQQQQGQIPQSQQVPQVRSMSGQPPTNVQPTIGQLPQLPKLNLPKYQTIQYDPPETKLPYPTYWSDKKADTDTLLYEQIIQRDKINKYSLIRETNGYDPFSIYGFSNKEYISRLWHTLKYYQDLKNTRMKSITSTSQKIPSASIWGNGYSGYGNGITNTTTRVIPQVEVGNRKHYLEDKLKVYKQAMNETSEQLVPIRLEFDQDRDRFFLRDTLLWNKNDKLIKIEDFVDDMLRDYRFEDATREQHIDTICQSIQEQIQEFQGNPYIELNQDRLGGDDLRIRIKLDIVVGQNQLIDQFEWDISNSDNCPEEFAESMCQELELPGEFVTAIAHSIREQVHMYHKSLALLGYNFDGSAIEDDDIRSRMLPTITLDDVYRPAAESKIFTPNLLQISAAELERLDKDKDRDTRRKRRQGRSNRRGMLALSGTSASNTSMNGVHNTVAAGNASSLPPGEILLPDIADIPRTFRTPVPSTLMPGGVDVGPSVESYELRNTTTYKSRPDRPKPVSPPCYIIDHIPGHSLLLSIKLPGKVNTKEEFAAAPNDTSSGTNAMLPSPESLKTKLNSNIRAGVTIPSIPNPIANHTVTNSPNPTLQPVIPGGAASKSVPTPSLPIAPPVAPHDSEATLLTNSNNGSSNNNTQNT
# notes: Snf5, subunit of the S. cerevisiae Swi/Snf complex; endogenous protein; For cryo-EM the complex was cross-linked with 1 mM BS3; source: endogenous, S. cerevisiae; purified as part of the Swi/Snf complex through Snf6-3Flag (ANTI-FLAG M2 resin, Superose 6)
# B2: Snf12 (natural protein, S. cerevisiae, UniProt P53628 1-566, looked up)
# chain: MSKVMKPSNGKGSRKSSKAATPDTKNFFHAKKKDPVNQDKANNASQITPTVPHSHPSDMVIPDHLAELIPELYSFQQLVDSEKRLDHFIHLRNLHMKRMVAQWERSKLSQEFLYPHLNFPNVKFLRIFISNVSENQPWQMDTNNEADLMALENATWTMRIEGRLLDNVQANDPAREKFSSFIESIVVDFKNKENDNVPSTKFNAAPEENATEGPSDKKLNLNLPLQFSLPNGDNSTTTNTDQNNATMGEETAKKDMSSTTPKLESVKWQYDPNNPVDFDGLDIKRVGSENVECTISILRKSSPEEPFMSYSPQLTAIIGLKSGTSHDAIFSIYKYIHLNELLTNDESAFENLMGNRNNHNSNTSTSKMLDAASSQVSIVKLDTQLITLLPSSLKESSPDTMKLTDLLSLINSTHLLPLQPIEIDYTVRVDKASTYGELVLDIEVPDVNALKFNNTQRESQIGAAELNENARELEQIKPKIALQDKEITSVLSNLHESNKRYRFFKKISEDPVKALNECIASTSNALKVLSGDEGYNEDMVRRANFYKENEAMLRENIEVILSNGRM
# notes: Snf12, subunit of the S. cerevisiae Swi/Snf complex; endogenous protein; Part of the SWIB domain was homology modelled; For cryo-EM the complex was cross-linked with 1 mM BS3; source: endogenous, S. cerevisiae; purified as part of the Swi/Snf complex through Snf6-3Flag (ANTI-FLAG M2 resin, Superose 6)
# B3: Swi1 (natural protein, S. cerevisiae, UniProt P09547 1-1314, looked up)
# chain: MDFFNLNNNNNNNNTTTTTTTTNNNNTNNNNTNNNNNPANNTNNNNSTGHSSNTNNNTNNNNTNTGASGVDDFQNFFDPKPFDQNLDSNNNNSNSNNNDNNNSNTVASSTNFTSPTAVVNNAAPANVTGGKAANFIQNQSPQFNSPYDSNNSNTNLNSLSPQAILAKNSIIDSSNLPLQAQQQLYGGNNNNNSTGIANDNVITPHFITNVQSISQNSSSSTPNTNSNSTPNANQQFLPFNNSASNNGNLTSNQLISNYAASNSMDRSSSASNEFVPNTSDNNNNSNNHNMRNNSNNKTSNNNNVTAVPAATPANTNNSTSNANTVFSERAAMFAALQQKQQQRFQALQQQQQQQQNQQQQNQQPQQQQQQQQNPKFLQSQRQQQQRSILQSLNPALQEKISTELNNKQYELFMKSLIENCKKRNMPLQSIPEIGNRKINLFYLYMLVQKFGGADQVTRTQQWSMVAQRLQISDYQQLESIYFRILLPYERHMISQEGIKETQAKRIFLQQFLQELLKKVQQQQQAAALANANNNINSASSAPTPAAPGASVPATAAPGTEAGIVPVSANTPKSLNSNININVNNNNIGQQQVKKPRKQRVKKKTKKELELERKEREDFQKRQQKLLEDQQRQQKLLLETKLRQQYEIELKKLPKVYKRSIVRNYKPLINRLKHYNGYDINYISKIGEKIDSNKPIFLFAPELGAINLHALSMSLQSKNLGEINTALNTLLVTSADSNLKISLVKYPELLDSLAILGMNLLSNLSQNVVPYHRNTSDYYYEDAGSNQYYVTQHDKMVDKIFEKVNNNATLTPNDSNDEKVTILVDSLTGNQLPTPTPTEMEPDLDTECFISMQSTSPAVKQWDLLPEPIRFLPNQFPLKIHRTPYLTSLKKIKDEIDDPFTKINTRGAEDPKVLINDQLSTISMILRNISFSDNNSRIMSRNFYLKRFISDLLWLVLIHPENFTCNRKILNFKKDLVIVLSNISHLLEIASSIDCLLILILVISFGQPKLNPMASSSSFGSESLTFNEFQLQWGKYQTFGVDILAKLFSLEKPNLNYFKSILLNKNTGNNLYDRNSNNNHKDKKLLRRLLNLYNDNNKNNNNRHNLLNDVVSFLFSAIPLQQVLSQSADPSLLIDQFSPVISQSLTSILVIVQKILPLSNEVFEISENNSDSNSNNNGNKDSSFNFNKNLPFVWLSSEENIGSGLLKLSEIILNINNSTSKNTLLQQQNYSKVLLPSINISCVQLIKCLVEKSICFENCLNNDPEILKKIASIPNLFPTDLEIFQLFTNPSVDIQIINQYQLLYNLKNDILTNLE
# notes: Swi1, subunit of the S. cerevisiae Swi/Snf complex; endogenous protein; Only part of the chain is modelled (C-terminus with seven ARM repeats, α1, β1); For cryo-EM the complex was cross-linked with 1 mM BS3; source: endogenous, S. cerevisiae; purified as part of the Swi/Snf complex through Snf6-3Flag (ANTI-FLAG M2 resin, Superose 6)
# B4: Snf6 with a C-terminal 3-Flag tag (natural protein, S. cerevisiae, UniProt P18888 1-332, looked up)
# chain: MGVIKKKRSHHGKASRQQYYSGVQVGGVGSMGAINNNIPSLTSFAEENNYQYGYSGSSAGMNGRSLTYAQQQLNKQRQDFERVRLRPEQLSNIIHDESDTISFRSNLLKNFISSNDAFNMLSLTTVPCDRIEKSRLFSEKTIRYLMQKQHEMKTQAAELQEKPLTPLKYTKLIAAAEDGSRSTKDMIDAVFEQDSHLRYQPDGVVVHRDDPALVGKLRGDLREAPADYWTHAYRDVLAQYHEAKERIRQKEVTAGEAQDEASLQQQQQQDLQQQQQVVTTVASQSPHATATEKEPVPAVVDDPLENMFGDYSNEPFNTNFDDEFGDLDAVFF
# notes: Snf6, subunit of the S. cerevisiae Swi/Snf complex; expressed from its own locus; Bait of the purification; For cryo-EM the complex was cross-linked with 1 mM BS3; source: endogenous locus tagged by homologous recombination, S. cerevisiae; purified (ANTI-FLAG M2 resin, FLAG peptide elution, Superose 6); not shown: 3-Flag, C-terminal, kept
# Assays:
# Assay in all cases: cryo-EM structure; endogenous Swi/Snf complex purified as a whole through Snf6-3Flag, nucleosome-free, cross-linked with 1 mM BS3, 20 mM HEPES pH 7.4, 350 mM NaCl; 4.1 Å average, 2.9 Å for the base module
# Details in all cases: both partners purified
# [1] = target: B3
# [2] = target: T2, Snf2 (S. cerevisiae, UniProt P22082 1-1703)
# T2 construct: Snf2, ATPase-containing subunit of the S. cerevisiae Swi/Snf complex; endogenous protein; Only the preHSA domain and the HSA helix are seen in the map; the ATPase domain is absent from the structure; For cryo-EM the complex was cross-linked with 1 mM BS3; source: endogenous, S. cerevisiae; purified as part of the Swi/Snf complex through Snf6-3Flag (ANTI-FLAG M2 resin, Superose 6)
# T2 sequence (P22082 whole entry, the tested form may be a part): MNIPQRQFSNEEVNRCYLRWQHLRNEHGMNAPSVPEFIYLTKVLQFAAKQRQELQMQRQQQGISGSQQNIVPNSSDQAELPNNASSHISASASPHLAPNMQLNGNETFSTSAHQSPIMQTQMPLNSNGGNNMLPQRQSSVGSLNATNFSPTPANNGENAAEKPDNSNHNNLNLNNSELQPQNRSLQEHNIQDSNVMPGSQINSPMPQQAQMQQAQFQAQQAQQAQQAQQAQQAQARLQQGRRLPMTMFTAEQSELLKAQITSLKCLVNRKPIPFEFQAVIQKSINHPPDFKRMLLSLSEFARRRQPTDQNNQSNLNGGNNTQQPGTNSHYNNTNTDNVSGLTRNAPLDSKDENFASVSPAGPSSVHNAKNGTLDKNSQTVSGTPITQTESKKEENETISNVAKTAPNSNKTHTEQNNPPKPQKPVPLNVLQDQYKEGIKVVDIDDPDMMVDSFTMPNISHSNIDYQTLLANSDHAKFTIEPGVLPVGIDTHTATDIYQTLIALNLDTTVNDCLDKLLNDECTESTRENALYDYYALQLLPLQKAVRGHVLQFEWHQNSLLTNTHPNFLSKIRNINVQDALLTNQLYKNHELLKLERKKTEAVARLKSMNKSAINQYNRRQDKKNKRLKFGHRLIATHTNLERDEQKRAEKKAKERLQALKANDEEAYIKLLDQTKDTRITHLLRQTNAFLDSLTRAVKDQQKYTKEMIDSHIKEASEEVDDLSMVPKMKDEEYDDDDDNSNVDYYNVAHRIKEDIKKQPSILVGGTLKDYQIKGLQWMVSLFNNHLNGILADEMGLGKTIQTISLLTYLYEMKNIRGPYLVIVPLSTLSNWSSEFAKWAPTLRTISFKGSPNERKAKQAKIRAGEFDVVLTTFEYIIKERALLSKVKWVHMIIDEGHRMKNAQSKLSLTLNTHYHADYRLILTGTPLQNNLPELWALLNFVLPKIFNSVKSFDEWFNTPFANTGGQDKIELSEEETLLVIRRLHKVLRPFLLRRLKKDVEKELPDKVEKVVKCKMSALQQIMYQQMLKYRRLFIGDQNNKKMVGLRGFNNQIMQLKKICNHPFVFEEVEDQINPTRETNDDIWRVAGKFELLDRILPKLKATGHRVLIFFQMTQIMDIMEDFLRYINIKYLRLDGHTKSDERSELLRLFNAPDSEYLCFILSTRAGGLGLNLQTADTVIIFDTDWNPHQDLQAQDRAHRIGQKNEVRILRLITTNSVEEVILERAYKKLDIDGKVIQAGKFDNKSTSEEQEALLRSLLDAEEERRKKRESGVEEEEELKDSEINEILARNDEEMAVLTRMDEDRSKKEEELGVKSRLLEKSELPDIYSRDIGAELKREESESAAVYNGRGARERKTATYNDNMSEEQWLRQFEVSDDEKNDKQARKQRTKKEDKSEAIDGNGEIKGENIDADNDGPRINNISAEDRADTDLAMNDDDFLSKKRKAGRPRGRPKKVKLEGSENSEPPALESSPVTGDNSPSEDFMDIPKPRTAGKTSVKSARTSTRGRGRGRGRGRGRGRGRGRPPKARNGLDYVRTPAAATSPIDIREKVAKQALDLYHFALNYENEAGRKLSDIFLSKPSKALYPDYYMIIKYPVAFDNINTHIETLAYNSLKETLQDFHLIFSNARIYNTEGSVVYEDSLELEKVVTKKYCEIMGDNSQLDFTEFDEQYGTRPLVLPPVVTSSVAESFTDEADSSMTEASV
# [3] = target: T1, Swi3
Binder,binding result [1],binding result [2],binding result [3]
B1,binds,binds,
B2,binds,binds,binds
B3,,binds,
B4,binds,binds,
